How the values were obtained:
Test in all cases: epitope map assay, OD on overlapping 10-mer peptides
EVKMDAEFRH = target: T1, EVKMDAEFRH
T1 construct: APP flank + Aβ 1-6
T1 peptide: EVKMDAEFRH

VKMDAEFRHD = target: T2, VKMDAEFRHD
T2 construct: APP flank + Aβ 1-7
T2 peptide: VKMDAEFRHD

KMDAEFRHDS = target: T3, KMDAEFRHDS
T3 construct: APP flank + Aβ 1-8
T3 peptide: KMDAEFRHDS

MDAEFRHDSG = target: T4, MDAEFRHDSG
T4 construct: APP flank + Aβ 1-9
T4 peptide: MDAEFRHDSG

DAEFRHDSGY = target: T5, DAEFRHDSGY
T5 construct: Aβ 1-10
T5 peptide: DAEFRHDSGY

AEFRHDSGYE = target: T6, AEFRHDSGYE
T6 construct: Aβ 2-11
T6 peptide: AEFRHDSGYE

EFRHDSGYEV = target: T7, EFRHDSGYEV
T7 construct: Aβ 3-12
T7 peptide: EFRHDSGYEV

FRHDSGYEVH = target: T8, FRHDSGYEVH
T8 construct: Aβ 4-13
T8 peptide: FRHDSGYEVH

RHDSGYEVHH = target: T9, RHDSGYEVHH
T9 construct: Aβ 5-14
T9 peptide: RHDSGYEVHH

HDSGYEVHHQ = target: T10, HDSGYEVHHQ
T10 construct: Aβ 6-15
T10 peptide: HDSGYEVHHQ

DSGYEVHHQK = target: T11, DSGYEVHHQK
T11 construct: Aβ 7-16
T11 peptide: DSGYEVHHQK

SGYEVHHQKL = target: T12, SGYEVHHQKL
T12 construct: Aβ 8-17
T12 peptide: SGYEVHHQKL

GYEVHHQKLV = target: T13, GYEVHHQKLV
T13 construct: Aβ 9-18
T13 peptide: GYEVHHQKLV

YEVHHQKLVF = target: T14, YEVHHQKLVF
T14 construct: Aβ 10-19
T14 peptide: YEVHHQKLVF

EVHHQKLVFF = target: T15, EVHHQKLVFF
T15 construct: Aβ 11-20
T15 peptide: EVHHQKLVFF

HHQKLVFFAE = target: T16, HHQKLVFFAE
T16 construct: Aβ 13-22
T16 peptide: HHQKLVFFAE

HQKLVFFAED = target: T17, HQKLVFFAED
T17 construct: Aβ 14-23
T17 peptide: HQKLVFFAED

QKLVFFAEDV = target: T18, QKLVFFAEDV
T18 construct: Aβ 15-24
T18 peptide: QKLVFFAEDV

KLVFFAEDVG = target: T19, KLVFFAEDVG
T19 construct: Aβ 16-25
T19 peptide: KLVFFAEDVG

LVFFAEDVGS = target: T20, LVFFAEDVGS
T20 construct: Aβ 17-26
T20 peptide: LVFFAEDVGS

VFFAEDVGSN = target: T21, VFFAEDVGSN
T21 construct: Aβ 18-27
T21 peptide: VFFAEDVGSN

FFAEDVGSNK = target: T22, FFAEDVGSNK
T22 construct: Aβ 19-28
T22 peptide: FFAEDVGSNK

FAEDVGSNKG = target: T23, FAEDVGSNKG
T23 construct: Aβ 20-29
T23 peptide: FAEDVGSNKG

AEDVGSNKGA = target: T24, AEDVGSNKGA
T24 construct: Aβ 21-30
T24 peptide: AEDVGSNKGA

EDVGSNKGAI = target: T25, EDVGSNKGAI
T25 construct: Aβ 22-31
T25 peptide: EDVGSNKGAI

DVGSNKGAII = target: T26, DVGSNKGAII
T26 construct: Aβ 23-32
T26 peptide: DVGSNKGAII

VGSNKGAIIG = target: T27, VGSNKGAIIG
T27 construct: Aβ 24-33; this label stands at two neighbouring bars
T27 peptide: VGSNKGAIIG

GSNKGAIIGL = target: T28, GSNKGAIIGL
T28 construct: Aβ 25-34
T28 peptide: GSNKGAIIGL

SNKGAIIGLM = target: T29, SNKGAIIGLM
T29 construct: Aβ 26-35
T29 peptide: SNKGAIIGLM

NKGAIIGLMV = target: T30, NKGAIIGLMV
T30 construct: Aβ 27-36
T30 peptide: NKGAIIGLMV

KGAIIGLMVG = target: T31, KGAIIGLMVG
T31 construct: Aβ 28-37
T31 peptide: KGAIIGLMVG

GAIIGLMVGG = target: T32, GAIIGLMVGG
T32 construct: Aβ 29-38
T32 peptide: GAIIGLMVGG

AIIGLMVGGV = target: T33, AIIGLMVGGV
T33 construct: Aβ 30-39
T33 peptide: AIIGLMVGGV

IIGLMVGGVV = target: T34, IIGLMVGGVV
T34 construct: Aβ 31-40
T34 peptide: IIGLMVGGVV

IGLMVGGVVI = target: T35, IGLMVGGVVI
T35 construct: Aβ 32-41
T35 peptide: IGLMVGGVVI

GLMVGGVVIA = target: T36, GLMVGGVVIA
T36 construct: Aβ 33-42
T36 peptide: GLMVGGVVIA

LMVGGVVIAT = target: T37, LMVGGVVIAT
T37 construct: Aβ 34-43
T37 peptide: LMVGGVVIAT

MVGGVVIATV = target: T38, MVGGVVIATV
T38 construct: Aβ 35-43 + one further APP residue
T38 peptide: MVGGVVIATV

EEISEVKMDA = target: T39, EEISEVKMDA
T39 construct: APP flank + Aβ 1-2
T39 peptide: EEISEVKMDA

EISEVKMDAE = target: T40, EISEVKMDAE
T40 construct: APP flank + Aβ 1-3
T40 peptide: EISEVKMDAE

ISEVKMDAEF = target: T41, ISEVKMDAEF
T41 construct: APP flank + Aβ 1-4
T41 peptide: ISEVKMDAEF

SEVKMDAEFR = target: T42, SEVKMDAEFR
T42 construct: APP flank + Aβ 1-5
T42 peptide: SEVKMDAEFR

B1: mouse 15C11 antibody (antibody, V domains shown)
VH: EVKLVESGGGLVQPGGSLKLSCAASGFTFSRYSMSWVRQTPEKRLELVAKISNSGDNTYYPDTLKGRFTISRDNAQNTLYLQMSSLKSEDTAMYYCASGDYWGQGTTLTVSS
VL: DVVMTQTPLSLPVSLGDQASISCRSSQSLVHSDGNTYLHWYLQKPGQSPKLLIYKVSNRFSGVPDRFSGSGSGTDFTLKISRVEAEDLGVYFCSQSTHVWTFGGGTKLEIK
notes: Mouse monoclonal antibody from a hybridoma; The claims number the mature chains 1-111 and 1-112; also called mouse antibody 15C11
B1: no binding (EVKMDAEFRH); no binding (VKMDAEFRHD); no binding (KMDAEFRHDS). B1: no binding (MDAEFRHDSG); no binding (DAEFRHDSGY); no binding (AEFRHDSGYE). B1: no binding (EFRHDSGYEV); no binding (FRHDSGYEVH); no binding (RHDSGYEVHH). B1: no binding (HDSGYEVHHQ); no binding (DSGYEVHHQK); no binding (SGYEVHHQKL). B1: no binding (GYEVHHQKLV); no binding (YEVHHQKLVF); no binding (EVHHQKLVFF). B1: binds (HHQKLVFFAE); binds (HQKLVFFAED); binds (QKLVFFAEDV). B1: binds (KLVFFAEDVG); binds (LVFFAEDVGS); binds (VFFAEDVGSN). B1: binds (FFAEDVGSNK); no binding (FAEDVGSNKG); no binding (AEDVGSNKGA). B1: no binding (EDVGSNKGAI); no binding (DVGSNKGAII); no binding (VGSNKGAIIG). B1: no binding (GSNKGAIIGL); no binding (SNKGAIIGLM); no binding (NKGAIIGLMV). B1: no binding (KGAIIGLMVG); no binding (GAIIGLMVGG); no binding (AIIGLMVGGV). B1: no binding (IIGLMVGGVV); no binding (IGLMVGGVVI); no binding (GLMVGGVVIA). B1: no binding (LMVGGVVIAT); no binding (MVGGVVIATV); no binding (EEISEVKMDA). B1: no binding (EISEVKMDAE); no binding (ISEVKMDAEF); no binding (SEVKMDAEFR).

— US20060165682A1 (Janssen / Centocor, published 2006)
